The supplement of paper PMC10567573
± gives the standard deviation.

Test: protein stability index of a GFP-peptide fusion (GPS, HEK-293T) (PSI 1-6); higher = more stable
[1] = treatment: DMSO, c terminus: a fixed tail appended
[2] = treatment: MLN4924 1 uM, 8 h, c terminus: a fixed tail appended
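Note: 24-mer peptide tiles fused after GFP, lentivirally expressed, FACS-sorted into six equal bins by GFP/DsRed ratio, decoded by Illumina sequencing, PSI is the read-weighted mean bin number.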

RLVLDAALALQARGCSVKIWTAHY [ALG2]
protein stability index [1]: 2.87 ± 0.68
protein stability index [2]: 2.69 ± 0.72

DNDRTTPSDLDSTGNSLNEPEEPS [DLC1]
protein stability index [1]: 5.61 ± 0.21
protein stability index [2]: 5.63 ± 0.11

TTSPNVLWPTPGHLSPLVVHRQLS [ESR2]
protein stability index [1]: 2.85 ± 0.29
protein stability index [2]: 2.72 ± 0.41

TLIVVDASGLGLEITTQFLIYASY [SLC19A2]
protein stability index [1]: 3.32 ± 0.54
protein stability index [2]: 3.32 ± 0.4

RMENVTVLGEDVIVNDELYLNGAS [GMPPB]
protein stability index [1]: 4.09 ± 0.072
protein stability index [2]: 4.1 ± 0.29

FVRGQEFKAHKSVLAARSPVFNAM [SPOPL]
protein stability index [1]: 2.66 ± 0.45
protein stability index [2]: 2.83 ± 0.34

VLSLACAGGHLAVVELLLAHGADP [ANKRD17]
protein stability index [1]: 2.3 ± 0.66
protein stability index [2]: 2.44 ± 0.95

THLILHRDLKTQNILLDKHRMVVK [NEK8]
protein stability index [1]: 2.78 ± 0.11
protein stability index [2]: 2.83 ± 0.17

MDYDSYQHYFYDYDCGEDFYRSTA [MYCL]
protein stability index [1]: 2.75 ± 0.35
protein stability index [2]: 2.51 ± 0.26

PRGRLDLATQSLTVETCRALGKLL [LRRC45]
protein stability index [1]: 2.38 ± 0.28
protein stability index [2]: 2.31 ± 0.31

RIHSGEEPHKCPECGKRFLRSSDL [ZNF449]
protein stability index [1]: 3.51 ± 0.73
protein stability index [2]: 4.09 ± 0.34

FGCEECGKKYNTMLGYKRHLALHA [PLAGL1]
protein stability index [1]: 3.94 ± 0.12
protein stability index [2]: 3.97 ± 0.27

NIEEIDEIPLVIKYKKAVGLKLKQ [WDR88]
protein stability index [1]: 2.78 ± 0.19
protein stability index [2]: 2.91 ± 0.28

GDDSDLSEGFESDSSHDSARASEG [SMG5]
protein stability index [1]: 5.47 ± 0.3
protein stability index [2]: 5.48 ± 0.13

IRNSRPLVKKVEEDEAGGRFVAFS [UFD1]
protein stability index [1]: 4.11 ± 0.15
protein stability index [2]: 4.05 ± 0.21

EVLDGVEDAEGEEEEEEEEEEEDD [FKBP8]
protein stability index [1]: 5.46 ± 0.38
protein stability index [2]: 5.69 ± 0.23

TLRSHLKSFSMAKGLNARMMRGLS [RAB40A]
protein stability index [1]: 2.47 ± 0.19
protein stability index [2]: 2.78 ± 0.24

QRVGFGDDFDEDELMAELEELEQE [CHMP4C]
protein stability index [1]: 5.33 ± 0.4
protein stability index [2]: 5.35 ± 0.23

FRALKRPLQFLGLFENSLCRLTHI [ZER1]
protein stability index [1]: 2.62 ± 0.4
protein stability index [2]: 2.46 ± 0.54

AFRALASAQCPQFGIPRKRLKQS [SPOPL]
protein stability index (treatment: DMSO, c terminus: native): 2.74 ± 0.19
protein stability index (treatment: MLN4924 1 uM, 8 h, c terminus: native): 2.83 ± 0.16

KLFCIPVHGIRSVGTAAVNMCLVA [IMPA1]
protein stability index [1]: 2.4 ± 0.8
protein stability index [2]: 2.26 ± 0.85

NQKSDIWALGCVLYELASLKRAFE [NEK8]
protein stability index [1]: 2.38 ± 0.72
protein stability index [2]: 2.41 ± 0.34

MGTEPAPSAPEALHSLPGVSLSLE [TBX6]
protein stability index [1]: 4.28 ± 0.22
protein stability index [2]: 4.41 ± 0.24

SSGRKWGDDAPKEEVDTGAVNLIE [INTS4]
protein stability index [1]: 5.22 ± 0.6
protein stability index [2]: 5.21 ± 0.13

SSLFSVEANSSNSQKNEKALTNIQ [C8orf76]
protein stability index [1]: 4.93 ± 0.2
protein stability index [2]: 4.73 ± 0.21

RNGGKYCEGRRTRFRSCNTEDCPT [ADAMTS4]
protein stability index [1]: 4.15 ± 0.34
protein stability index [2]: 4.09 ± 0.32

DYFISYGIEHAQCVPPSEFSEPSF [ETS1]
protein stability index [1]: 2.49 ± 0.26
protein stability index [2]: 2.67 ± 0.18

YTFIIVPKMLVDLLSQKKTISFLG [OR10K2]
protein stability index [1]: 3.09 ± 0.14
protein stability index [2]: 2.7 ± 0.28

FGHLINGAIAVFVYASDKEWIRFD [PTGFR]
protein stability index [1]: 3.1 ± 0.29
protein stability index [2]: 3.1 ± 0.38

CCIVTSTYGWTANMERIMKAQALR [HSP90AB1]
protein stability index [2]: 2.42 ± 0.4

FHYLVFDLVTGGELFEDIVAREYY [CAMK2B]
protein stability index [1]: 3.21 ± 0.4
protein stability index [2]: 3.05 ± 1

ASSGLTVEVDAPKSQDLAKIMADI [KRT18]
protein stability index [1]: 4.45 ± 0.3
protein stability index [2]: 4.57 ± 0.057

GGKYLGRTKVVKPYSTVDNPVYYG [EFHC1]
protein stability index [1]: 2.87 ± 0.33
protein stability index [2]: 2.97 ± 0.33

HWALRVTPGLGVVAVLLLFLVVRE [SPNS1]
protein stability index [1]: 2.83 ± 0.47
protein stability index [2]: 2.79 ± 0.59

SEGDLKNAIRVHHALATRASDYSK [PSD2]
protein stability index [1]: 4.04 ± 0.11
protein stability index [2]: 4.22 ± 0.18

FQNAERAFKAAALIQRWYRRYVAR [PPEF2]
protein stability index [2]: 5.54 ± 0.23

GVEPAPWAQLEAPARLLLQALQAG [FANCE]
protein stability index [1]: 2.89 ± 0.27
protein stability index [2]: 2.92 ± 0.38

VPTTPGPASGSTFRGRRDVSGSWE [RETREG3]
protein stability index [1]: 4.37 ± 0.2
protein stability index [2]: 4.44 ± 0.15

NSEDIFLLLCLKVDNHFNLLTTSP [TRIM43]
protein stability index [1]: 2.58 ± 0.33
protein stability index [2]: 2.31 ± 0.67

LLSRFSVGIFHLMQIAVPCAFLLL [TMEM175]
protein stability index [1]: 2.6 ± 0.35
protein stability index [2]: 2.24 ± 0.25

YKGHTDVVRYLLEQRADPNAKAHC [FEM1B]
protein stability index [1]: 3.27 ± 0.44
protein stability index [2]: 3.6 ± 0.17

PIVPKIAGDGDTSNFETYPENDWD [PRKX]
protein stability index [1]: 5.51 ± 0.17
protein stability index [2]: 5.37 ± 0.32

KAQLPRRESERRNHSLARHADILA [FBXO28]
protein stability index [1]: 3.85 ± 0.11
protein stability index [2]: 3.96 ± 0.14

YKDRQKFSEQVFKVASSDLVNMGI [FLOT1]
protein stability index [1]: 2.52 ± 0.24
protein stability index [2]: 2.77 ± 0.29

LSHSPQEDWVLLGMANGQQWLQST [TLE6]
protein stability index [1]: 2.57 ± 0.3
protein stability index [2]: 2.52 ± 0.26

PPLPPPDDPATLGPHLGLRGVPQS [DYRK1B]
protein stability index [1]: 4.9 ± 0.23
protein stability index [2]: 4.91 ± 0.14

GRKPERRRLKTTRLKEYTIKSHSS [DAPK3]
protein stability index [1]: 3.92 ± 0.17
protein stability index [2]: 4.06 ± 0.29

LSLIGVRVDVDTYLTSQLPPLREI [NFE2L1]
protein stability index [1]: 3.12 ± 1.1
protein stability index [2]: 2.57 ± 0.58

LDSCKQLTLAQGAGEEDPSGMVTI [SMG5]
protein stability index [1]: 4.46 ± 0.16
protein stability index [2]: 4.49 ± 0.4

SSNFHINVEESVDGQVVSSHKREI [KRT15]
protein stability index [1]: 4.7 ± 0.18
protein stability index [2]: 4.68 ± 0.18

SIYIHVYFTKSGFHPDPRQKALYR [CLPTM1]
protein stability index [1]: 2.86 ± 0.6
protein stability index [2]: 2.76 ± 0.22

ADSLDFDETFLATSFLQHPWDESG [FOXJ1]
protein stability index [1]: 4.22 ± 0.087
protein stability index [2]: 4.08 ± 0.13

GHWTNVTPMATKRSGAGVALLNDH [KLHL12]
protein stability index [1]: 3.48 ± 0.079
protein stability index [2]: 3.62 ± 0.085

NDNKVLRYLAVLESPIPEDKDRRF [EFHC1]
protein stability index [1]: 3.51 ± 0.21
protein stability index [2]: 3.6 ± 0.15

RMGSSESTDSGFCLDSPGPLDSKE [CDC25A]
protein stability index [1]: 5.45 ± 0.14
protein stability index [2]: 5.47 ± 0.44

RGDPLGGCQVSPEGYAHLTHLLMG [HDAC6]
protein stability index [1]: 2.35 ± 0.31
protein stability index [2]: 2.71 ± 0.47

LDPRYKRLPFLSAFERQQVENRVV [ZBED1]
protein stability index [1]: 3.36 ± 0.091
protein stability index [2]: 3.47 ± 0.13

WIEQLNECKQLSESQVKSLCEKAK [PPP2CA]
protein stability index [1]: 3.85 ± 0.18
protein stability index [2]: 3.87 ± 0.1

IINDTYSEVKEELAGQKDELQLSD [PKD2L1]
protein stability index [1]: 5.35 ± 0.23
protein stability index [2]: 5.28 ± 0.22

SRIKGWWVFHHYVSTFLSGVMLTW [TMEM120A]
protein stability index [1]: 2.55 ± 0.24
protein stability index [2]: 2.37 ± 0.36

VRSTETVERDNMEEDNVEESEEEG [HDAC6]
protein stability index [1]: 5.57 ± 0.45
protein stability index [2]: 5.72 ± 0.24

IDNARLAADDFRLKYENELALRQG [KRT15]
protein stability index [1]: 4.24 ± 0.28
protein stability index [2]: 4.28 ± 0.45

MATFPCQLCGKTFLTLEKFTIHNY [PLAGL1]
protein stability index [1]: 2.47 ± 0.23
protein stability index [2]: 2.4 ± 0.28

GGDHRYVNNYTNSFGGEWSAPDTM [TRIM29]
protein stability index [1]: 3.51 ± 0.44
protein stability index [2]: 3.51 ± 0.32

LEPAQRPPLSHIMAQPLCIRALLN [NEK8]
protein stability index [1]: 3.35 ± 0.21
protein stability index [2]: 3.48 ± 0.16

TPMATKRSGAGVALLNDHIYVVGG [KLHL12]
protein stability index [1]: 2.91 ± 0.26
protein stability index [2]: 2.71 ± 0.31

RMLHRSTQTTNDGVCQSMCHDKYT [ZMYND11]
protein stability index [1]: 3.94 ± 0.18
protein stability index [2]: 4.04 ± 0.32

PYVSDGNFSNYYVAHPPVTYSQPY [TENT5C]
protein stability index [1]: 2.55 ± 0.39
protein stability index [2]: 2.62 ± 0.38

TKVVYLASETFNYSAIDRVKSRGK [PI4K2A]
protein stability index [1]: 2.85 ± 0.18
protein stability index [2]: 3.17 ± 0.31

VSKVVKGGSSGKGTTLRGRSDADL [OAS1]
protein stability index [1]: 4.36 ± 0.11
protein stability index [2]: 4.48 ± 0.15

CFRSLAASSPSIRQKKLMHKLQEE [CCDC70]
protein stability index [1]: 3.22 ± 0.15
protein stability index [2]: 3.33 ± 0.046

ALGILIFEMLSGFPPFFDDNPFGI [PRKX]
protein stability index [1]: 3.11 ± 1.7
protein stability index [2]: 3.31 ± 0.25

LTQRQVNITVQKKVSQWWERLTKQ [HACD3]
protein stability index [1]: 2.55 ± 0.33
protein stability index [2]: 2.81 ± 0.24

SHQYDRIYCGAGVQKDHENYMKIL [PCMTD1]
protein stability index [1]: 2.38 ± 0.16
protein stability index [2]: 2.39 ± 0.2

PVVWWLNLLSIALYLLSGSIIAVA [POMT2]
protein stability index [1]: 3.27 ± 0.14
protein stability index [2]: 3.43 ± 0.18

FKAHKSVLAARSPVFNAMFEHEME [SPOPL]
protein stability index [1]: 3.17 ± 0.41
protein stability index [2]: 3.17 ± 0.32

YEIPHFRLKKVENIKIWLSLRSYL [PHTF1]
protein stability index [1]: 2.8 ± 1
protein stability index [2]: 2.92 ± 0.9

MYEEEMEREEITTKKRKLGKNPDV [FAM50A]
protein stability index [1]: 4.94 ± 0.57
protein stability index [2]: 5.14 ± 0.44

NSNLEEPLNPKPHKKKSPGEKPHR [ZNF449]
protein stability index [1]: 5.47 ± 0.23
protein stability index [2]: 5.45 ± 0.2

PIPWFLPESRSLPSSPLRLGSYKA [PPEF2]
protein stability index [1]: 2.99 ± 0.16
protein stability index [2]: 3.11 ± 0.48

NVQRLAEPSQMLKHAVVNLINYQD [CTNNB1]
protein stability index [1]: 2.66 ± 0.18
protein stability index [2]: 2.83 ± 0.12

SMPCSTDKENGENVGLESKYLKKR [SASS6]
protein stability index [1]: 4.62 ± 0.4
protein stability index [2]: 5.08 ± 0.19

NEEIRAVGRLKRERSMSENAVRQN [MFF]
protein stability index [1]: 5.15 ± 0.2
protein stability index [2]: 4.87 ± 0.27

VIDGATALWCAAGAGHFEVVKLLV [FEM1B]
protein stability index [1]: 2.49 ± 0.89
protein stability index [2]: 2.36 ± 0.35

LPVSSPEPPPALPPAADAPVTQIG [TRIM55]
protein stability index [1]: 5.23 ± 0.13
protein stability index [2]: 5.33 ± 0.12

LENVLDPDSFYELKSQPLPLRSSL [TFE3]
protein stability index [1]: 3.4 ± 0.27
protein stability index [2]: 3.49 ± 0.21

GELRSKSGHKLYIFLFQDILVLTR [NET1]
protein stability index [1]: 2.5 ± 0.66
protein stability index [2]: 1.75 ± 0.27

YGLPIMVTLMVAKWTGDFFNKGIY [CLCN6]
protein stability index [1]: 2.98 ± 0.25
protein stability index [2]: 3.4 ± 0.42

SDSGKDLPEPSKRGPPHGWPKLCP [MYCL]
protein stability index [1]: 4.27 ± 0.1
protein stability index [2]: 4.63 ± 0.078
